Experimental data reported in patent publication US20140357844A1 (RINAT NEUROSCIENCE, published 2014).
Numbering of substitutions follows the chain as printed. Each block holds one binder with its values, some of them ahead of it.

Tests used:
human Trop-2-hFc = target: T1, human Trop-2-hFc (human, UniProt P09758 27-274); assay: SPR (Biacore T200), human Trop-2-hFc captured by anti-human Fc, Fab as analyte
T1 construct: also called huTrop-2; human Trop-2 human Fc fusion protein; not shown: human Fc
T1 sequence: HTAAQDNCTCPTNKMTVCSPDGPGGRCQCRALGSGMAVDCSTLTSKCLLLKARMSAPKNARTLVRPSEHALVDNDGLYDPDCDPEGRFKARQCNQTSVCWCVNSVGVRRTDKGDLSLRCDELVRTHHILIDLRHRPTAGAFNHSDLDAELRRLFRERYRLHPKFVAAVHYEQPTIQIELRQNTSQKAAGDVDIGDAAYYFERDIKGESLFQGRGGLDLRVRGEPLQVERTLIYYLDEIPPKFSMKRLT

[1] = target: T2, cynomolgus monkey Trop-2-hFc (cynomolgus monkey, UniProt A0A2K5UE71 27-274); assay: SPR (Biacore T200), cynomolgus Trop-2-hFc captured by anti-human Fc, Fab as analyte
T2 construct: also called cynoTrop-2; not shown: human Fc
T2 sequence: T1 sequence with M36V, K46E, S67N, I204V

[2] = target: T3, monovalent human Trop2-ECD antigen (human, UniProt P09758 27-274); assay: SPR (ProteOn XPR36), amine-coupled Fab, monovalent human Trop2-ECD as analyte, 25 C;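 note: GLC sensor chip, 3 min association then 15 min buffer dissociation, kinetics fit with a 1:1 Langmuir model, buffer of 10 mM sodium phosphate with 150 mM NaCl and 0.05% Tween-20 at pH 7.4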
T3 construct: also called human Trop2-ECD (Extracellular Domain)
T3 sequence: T1 sequence
Procedure: Analysis of Fab/human Trop2-ECD (Extracellular Domain) interactions was performed using a Bio-Rad Proteon XPR36Surface Plasmon Resonance (SPR) biosensor (Bio-Rad, Hercules, Calif.) equipped with a GLC sensor chip. The assay temperature was 25° C., and the assay buffer was 10 mM Sodium Phosphate, 150 mM NaCl, 0.05% Tween-20, pH 7.4. […] In each analysis cycle, monovalent human Trop2-ECD antigen was flowed at 30 μL/min over the immobilized Fabs for 3 minutes followed by a buffer wash for 15 minutes to monitor dissociation of the Fab/Trop2 complex. The sensor surface was regenerated between analysis cycles, using three 18-second injections of a 2:1 mixture (by volume) of Pierce IgG Elution buffer:4 M NaCl (Pierce, Rockford, Ill.). […] The resulting data were fit to a 1:1 Langmuir binding model using the Proteon evaluation software.

[3] = target: T4, Trop-2 on Trop-2 expressing tumor cells (human, UniProt P09758 27-323); assay: flow cytometry, Colo205 cells (Trop-2+), 1 ug antibody per 300,000 cells
T4 construct: Endogenous Trop-2 of human tumour cell lines; also called Trop-2 positive tumor cells; A431 (Trop-2+++)
T4 sequence: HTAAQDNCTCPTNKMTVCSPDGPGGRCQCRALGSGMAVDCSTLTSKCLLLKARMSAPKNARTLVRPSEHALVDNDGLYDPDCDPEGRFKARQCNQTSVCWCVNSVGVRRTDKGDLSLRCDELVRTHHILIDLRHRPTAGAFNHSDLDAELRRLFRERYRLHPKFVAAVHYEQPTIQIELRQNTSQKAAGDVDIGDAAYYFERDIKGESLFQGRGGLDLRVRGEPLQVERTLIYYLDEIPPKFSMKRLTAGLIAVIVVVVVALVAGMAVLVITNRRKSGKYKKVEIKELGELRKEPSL

[4] = target: T4, Trop-2 on Trop-2 expressing tumor cells; assay: flow cytometry, A431 cells (Trop-2+++), 0.5 ug antibody per 200,000 cells
Procedure: For A431 cell staining, 200,000 cells were incubated with 0.5 ug antibody in 100 uL binding buffer (PBS (Phosphate Buffered Saline)+0.5% BSA (Bovine Serum Albumin)), followed by incubation with Dylight488-conjugated goat anti-human (Fab′)-2-specific secondary antibody from Jackson immunoresearch Laboratories (West Grove, Pa.).

[5] = target: T5, Monomeric Trop-2 extracellular domain prepared from papain digestion of Trop-2-Fc fusion protein (human, UniProt P09758 27-274); assay: SPR (Biacore), mouse IgG captured by anti-mouse IgG, monomeric Trop-2 ECD as analyte
T5 construct: also called huTrop-2
T5 sequence: T1 sequence
Procedure: The affinities of anti-Trop-2 mouse antibodies generated from hybridomas were measured on a surface plasmon resonance Biacore™ 2000 or 3000 biosensor equipped with a research-grade CM5 sensor chip (Biacore™ AB, Uppsala, Sweden—now GE Healthcare). Anti-mouse IgG was first amine coupled to the CM5 sensor surface. Various anti-Trop-2 mouse IgGs were then captured by anti-mouse IgG. Monomeric Trop-2 extracellular domain prepared from papain digestion of Trop-2-Fc fusion protein was then injected as the analyte at 3 fold dilution series.

[6] = target: T4, Trop-2 on Trop-2 expressing tumor cells; assay: flow cytometry, A431 cells (Trop-2+++), 1 ug antibody per 300,000 cells
[7] = target: T4, Trop-2 on Trop-2 expressing tumor cells; assay: flow cytometry, Colo205 cells (Trop-2+), 1 ug antibody per 300,000 cells; remark: listed apart in the source
Human Trop-2-mFc protein = target: T6, Human Trop-2-mFc protein (human, UniProt P09758 27-274); assay: SPR (Biacore 2000), human Trop-2-mFc captured by anti-mouse Fc, Fab as analyte
T6 construct: also called huTrop-2; not shown: mouse Fc
T6 sequence: T1 sequence

B1: h7E6_SVG Fab (Fab, V domains shown)
VH: QVQLQESGPGLVKPSETLSLTCTVSGGSISSYGVHWIRQPPGKGLEWIGVIWTSGVTDYNSALMGRVTISVDTSKNQFSLKLSSVTAADTAVYYCARDGDYDRYTMDYWGQGTLVTVSS
VL: DIVMTQSPDSLAVSLGERATINCRASKSVSTSGYSYMHWYQQKPGQPPKLLIYLASNLESGVPDRFSGSGSGTDFTLTISSLQAEDVAVYYCQHSRELPYTFGQGTKLEIK
notes: also called DG (h7E6_SVG)
Kd (human Trop-2-hFc): 4.46 nM
koff (human Trop-2-hFc): 0.000435 s⁻¹
kon (human Trop-2-hFc): 97600 M⁻¹ s⁻¹
Kd [1]: 7 nM
koff [1]: 0.00189 s⁻¹
kon [1]: 265000 M⁻¹ s⁻¹
Kd [2]: 4.1 nM
koff [2]: 0.00069 s⁻¹
kon [2]: 170000 M⁻¹ s⁻¹
t1/2 [2]: 17 min

B2: h7E6_WT antibody (human IgG1) (antibody, V domains shown)
VH: B1 VH with S54G, V56S, G65S
VL: B1 VL
notes: Human IgG1
% positive [3]: 99%
MFI [3]: 1760
% positive [4]: 94.8%
MFI [4]: 102000

B3: h7E6-WT recombinant Fab fragment (Fab, V domains shown)
VH: B1 VH with S54G, V56S, G65S
VL: B1 VL
notes: Recombinant Fab
Kd (human Trop-2-hFc): 21.1 nM
koff (human Trop-2-hFc): 0.00294 s⁻¹
kon (human Trop-2-hFc): 139000 M⁻¹ s⁻¹
Kd [1]: 44 nM
koff [1]: 0.00635 s⁻¹
kon [1]: 144000 M⁻¹ s⁻¹

B7: h7E6_SVGL antibody (human IgG1) (antibody, V domains shown)
VH: B1 VH
VL: B1 VL with G33L
notes: Human IgG1
% positive [3]: 100%
MFI [3]: 2420
% positive [4]: 93.1%
MFI [4]: 107000

B8: h7E6_SVGL recombinant Fab fragment (Fab, V domains shown)
VH: B1 VH
VL: B1 VL with G33L
notes: Recombinant Fab
Kd (human Trop-2-hFc): 0.25 nM
koff (human Trop-2-hFc): 3.27e-05 s⁻¹
kon (human Trop-2-hFc): 131000 M⁻¹ s⁻¹
Kd [1]: 0.57 nM
koff [1]: 7.42e-05 s⁻¹
kon [1]: 130000 M⁻¹ s⁻¹

B10: h7E6_L recombinant Fab fragment (Fab, V domains shown)
VH: B1 VH with S54G, V56S, G65S
VL: B1 VL with G33L
notes: Recombinant Fab
Kd (human Trop-2-hFc): 1.15 nM
koff (human Trop-2-hFc): 0.00015 s⁻¹
kon (human Trop-2-hFc): 130000 M⁻¹ s⁻¹
Kd [1]: 2.66 nM
koff [1]: 0.000335 s⁻¹
kon [1]: 126000 M⁻¹ s⁻¹

B13: h6G11_WT antibody (human IgG1) (antibody, V domains shown)
VH: QVQLVQSGAEVKKPGASVKVSCKASGYTFTSYWINWVRQAPGQGLEWMGNIYPSDSYSNYNQKFKDRVTMTRDTSTSTVYMELSSLRSEDTAVYYCARGSSFDYWGQGTLVTVSS
VL: EIVLTQSPATLSLSPGERATLSCRASQTIGTSIHWYQQKPGQAPRLLIYYASESISGIPARFSGSGSGTDFTLTISSLEPEDFAVYYCQQSNSWPFTFGQGTKLEIK
notes: Human IgG1
% positive [6]: 99.9%
MFI [6]: 19600
% positive [7]: 99%
MFI [7]: 1720

B14: Human 6G11 WT Fab fragment (Fab, V domains shown)
VH: B13 VH
VL: B13 VL
notes: Fab; also called h6G11_WT; h6G11
Kd (Human Trop-2-mFc protein): 27 nM
koff (Human Trop-2-mFc protein): 0.0096 s⁻¹
kon (Human Trop-2-mFc protein): 360000 M⁻¹ s⁻¹

B15: Human 6G11_FKG_SF Fab fragment (Fab, V domains shown)
VH: B13 VH with Y52F, Q62K, S101G
VL: B13 VL with Q89S, N92F
notes: Fab
Kd (Human Trop-2-mFc protein): 0.6 nM
koff (Human Trop-2-mFc protein): 0.00038 s⁻¹
kon (Human Trop-2-mFc protein): 640000 M⁻¹ s⁻¹

Next, values leading:

% positive [3]: 100%
MFI [3]: 2700
% positive [4]: 98.6%
MFI [4]: 149000
B4: h7E6_N antibody (human IgG1) (antibody, V domains shown)
VH: B1 VH with S54G, V56S, G65S
VL: B1 VL with G33N
notes: Human IgG1

% positive [3]: 100%
MFI [3]: 2470
% positive [4]: 95.1%
MFI [4]: 110000
B5: h7E6_L antibody (human IgG1) (antibody, V domains shown)
VH: B1 VH with S54G, V56S, G65S
VL: B1 VL with G33L
notes: Human IgG1

% positive [3]: 100%
MFI [3]: 2730
% positive [4]: 98.1%
MFI [4]: 128000
B6: h7E6_SVGN antibody (human IgG1) (antibody, V domains shown)
VH: B1 VH
VL: B1 VL with G33N
notes: Human IgG1

% positive [3]: 100%
MFI [3]: 2420
% positive [4]: 96.7%
MFI [4]: 121000
B9: h7E6_SVG antibody (human IgG1) (antibody, V domains shown)
VH: B1 VH
VL: B1 VL

Kd [5]: 31.8 nM
koff [5]: 0.0086 s⁻¹
kon [5]: 270000 M⁻¹ s⁻¹
B11: anti-Trop-2 mouse antibody 6G11 (antibody, mouse IgG2a, V domains shown)
VH: QVQLQQPGAELVRPGASVKLSCKASGYTFTSYWINWVKQRPGHGLEWIGNIYPSDSYSNYNQKFKDKATLTVDKSSSTAYMQVSSPTSEDSAVYYCTYGSSFDYWGQGTTVTVSS
VL: DILLTQSPAILSVSPGERVSFSCRASQTIGTSIHWYQQRTNGSPRLLIKYASESISGIPSRFSGSGSGTDFTLSINSVESEDIADYYCQQSNSWPFTFGSGTKLEIK
notes: also called m6G11

% positive [6]: 99.9%
MFI [6]: 16200
% positive [7]: 100%
MFI [7]: 1670
B12: chimeric mouse anti-Trop-2 6G11 antibody (human IgG1) (antibody, V domains shown)
VH: B11 VH
VL: B11 VL
notes: Expressed in the human IgG1 subtype; also called mouse 6G11

% positive [6]: 99.9%
MFI [6]: 20300
% positive [7]: 100%
MFI [7]: 2060
B16: h6G11_FKG_SF antibody (human IgG1) (antibody, V domains shown)
VH: B13 VH with Y52F, Q62K, S101G
VL: B13 VL with Q89S, N92F
